Reference: patent US10342879B2, “Carrier nanoparticles and related compositions, methods and systems” (California Institute of Technology, priority 2008, dated 2019)

Experiment: Effective diameter by dynamic light scattering in double distilled water
Assay type: physicochemical
Details: DLS
Procedure: 3 successive runs of 1 min each were subsequently recorded and averaged. […] 10 successive automated runs at target residuals of 0.012 were then performed and results averaged (FIG. 14).

Question: For “Poly(Mucic Acid-DiCys-PEG)-CPT conjugate”, which “share of the total particle population in the predominant distribution” value is on record?
Answer: Its value is 60%.
